According to US9249224B2 (RINAT NEUROSCIENCE CORP., priority 2011, dated 2016):

Experiments:
ALS = test: Serum ALS levels in cynomolgus monkeys after a single antibody dose; assay type: in vivo, cynomolgus monkey; details: for serum ALS levels decreased to about: by 96 hours; for serum ALS decrease below control: by 72 hours
Experimental: (§1) To determine if GHR antagonist monoclonal antibodies can affect IGF-1, IGFBP-3, and ALS levels in vivo by inhibiting the function of GHR, the effect of humanized anti-human GHR antibody SS1 was tested in cynomolgus monkeys. A dose-response study was conducted to test for changes in IGF-1, IGFBP-3, and ALS levels following a single dose of SS1. Eight naïve female cynomolgus monkeys were injected intravenously with a single dose of SS1 or negative control human IgG2, in 1×PBS 0.01% Tween™ 20. Two monkeys were dosed with 30 mg/kg SS1, two were dosed with 10 mg/kg SS1, two were dosed with 3 mg/kg SS1, and two were dosed with 30 mg/kg negative control human IgG2Δa on Day 1. […] Serum was also taken from the 30 mg/kg SS1 and negative control treated animals at 864 h post-dose.
Serum samples were analyzed for changes in ALS levels compared to baseline using a BioVendor™ Human ALS ELISA kit (cat. #RMEE35R).
Six naïve female cynomolgus monkeys were injected either intravenously or subcutaneously with a single dose of […] or negative control human IgG2Δa in 1×PBS 0.01% Tween™ 20. Two monkeys were dosed with 3 mg/kg SS1 intravenously, two were dosed with 3 mg/kg SS1 subcutaneously, and two were dosed with 3 mg/kg negative control human IgG2Δa subcutaneously on Day 1. Serum samples were taken from all animals at the following timepoints: pre-dose, 24 h, 72 h, 120 h, 168 h, 216 h, 264 h, 312 h, 360 h, 408 h, 456 h and 504 h.

IGFBP-3 = test: Serum IGFBP-3 levels in cynomolgus monkeys after a single antibody dose; assay type: in vivo, cynomolgus monkey; details: for serum IGFBP-3 levels (% change from baseline) / serum IGFBP-3 decrease below baseline: cynomolgus monkeys
Experimental: as §1
Serum samples were analyzed for changes in IGFBP-3 levels compared to baseline using an R&D Systems™ Quantikine™ human IGFBP-3 immunoassay kit (cat. #DGB300).

[1] = single IV dose 3, 10 or 30 mg/kg

B1: SS1: humanized GHR antagonist antibody; VL SEQ ID NO: 7, VH SEQ ID NO: 8; hIgG2Δa heavy chain SEQ ID NO: 134, light chain SEQ ID NO: 135 (antibody)
heavy: EVQLVESGGGLVKPGGSLRLSCAASGFTFSDAWMDWVRQAPGKGLEWVAEIRSKANYHATYYAESVKGRFTISRDDSKNTLYLQMNSLKTEDTAVYYCTLIRDYWGQGTLVTVSSASTKGPSVFPLAPCSRSTSESTAALGCLVKDYFPEPVTVSWNSGALTSGVHTFPAVLQSSGLYSLSSVVTVPSSNFGTQTYTCNVDHKPSNTKVDKTVERKCCVECPPCPAPPVAGPSVFLFPPKPKDTLMISRTPEVTCVVVDVSHEDPEVQFNWYVDGVEVHNAKTKPREEQFNSTFRVVSVLTVVHQDWLNGKEYKCKVSNKGLPSSIEKTISKTKGQPREPQVYTLPPSREEMTKNQVSLTCLVKGFYPSDIAVEWESNGQPENNYKTTPPMLDSDGSFFLYSKLTVDKSRWQQGNVFSCSVMHEALHNHYTQKSLSLSPGK
light: EIVLTQSPGTLSLSPGERATLSCTATSSVSSSYLNWYQQKPGQAPRLLIYSTSNLASGIPDRFSGSGSGTDFTLTISRLEPEDFAVYYCHQYHRSTPTFGGGTKVEIKRTVAAPSVFIFPPSDEQLKSGTASVVCLLNNFYPREAKVQWKVDNALQSGNSQESVTEQDSKDSTYSLSSTLTLSKADYEKHKVYACEVTHQGLSSPVTKSFNRGEC
modifications: Humanized and/or affinity matured antibody sequence
ALS; cynomolgus monkeys, SS1 3 mg/kg IV single dose
  serum ALS levels decreased to about: about 51%
ALS; cynomolgus monkeys, SS1 10 mg/kg IV single dose
  serum ALS levels decreased to about: ~24%
ALS; cynomolgus monkeys, SS1 30 mg/kg IV single dose
  serum ALS levels decreased to about: ~49%
ALS; cynomolgus monkeys, single dose 3 mg/kg SS1 SQ or IV
  time by which serum ALS levels returned to baseline levels: ≤ 312 h
ALS; cynomolgus monkeys, single dose 3 mg/kg SS1 intravenous (IV)
  serum ALS decrease below control: about 31%
ALS; cynomolgus monkeys, single dose 3 mg/kg SS1 subcutaneous (SQ)
  serum ALS decrease below control: about 43%
ALS; [1]
  effect on serum ALS levels in cynomolgus monkey: reduces serum ALS levels
IGFBP-3; SS1 3 mg/kg IV single dose, 24 h post-injection
  serum IGFBP-3 levels (% change from baseline): −18.75 +/− 1.25%
IGFBP-3; SS1 3 mg/kg IV single dose, 48 h post-injection
  serum IGFBP-3 levels (% change from baseline): −22.8 +/− 3.8%
IGFBP-3; SS1 3 mg/kg IV single dose, 72 h post-injection
  serum IGFBP-3 levels (% change from baseline): −36.45 +/− 6.65%
IGFBP-3; SS1 3 mg/kg IV single dose, 96 h post-injection
  serum IGFBP-3 levels (% change from baseline): −37.35 +/− 5.05%
IGFBP-3; SS1 3 mg/kg IV single dose, 120 h post-injection
  serum IGFBP-3 levels (% change from baseline): −38.25 +/− 4.85%
IGFBP-3; SS1 3 mg/kg IV single dose, 144 h post-injection
  serum IGFBP-3 levels (% change from baseline): −46.8 +/− 0.6%
IGFBP-3; SS1 3 mg/kg IV single dose, 192 h post-injection
  serum IGFBP-3 levels (% change from baseline): −32.55 +/− 1.35%
IGFBP-3; SS1 3 mg/kg IV single dose, 312 h post-injection
  serum IGFBP-3 levels (% change from baseline): 22.4 +/− 1.9%
IGFBP-3; SS1 3 mg/kg IV single dose, 336 h post-injection
  serum IGFBP-3 levels (% change from baseline): 28.15 +/− 12.25%
IGFBP-3; SS1 3 mg/kg IV single dose, by 72 hours
  serum IGFBP-3 decrease below baseline: about 36%
IGFBP-3; SS1 3 mg/kg IV single dose, by 144 hours
  serum IGFBP-3 decrease below baseline: about 47%
IGFBP-3; SS1 10 mg/kg IV single dose, 24 h post-injection
  serum IGFBP-3 levels (% change from baseline): −23.95 +/− 3.35%
IGFBP-3; SS1 10 mg/kg IV single dose, 48 h post-injection
  serum IGFBP-3 levels (% change from baseline): −28.4 +/− 2.9%
IGFBP-3; SS1 10 mg/kg IV single dose, 72 h post-injection
  serum IGFBP-3 levels (% change from baseline): −37.9 +/− 2.4%
IGFBP-3; SS1 10 mg/kg IV single dose, 96 h post-injection
  serum IGFBP-3 levels (% change from baseline): −40.95 +/− 0.35%
IGFBP-3; SS1 10 mg/kg IV single dose, 120 h post-injection
  serum IGFBP-3 levels (% change from baseline): −46.4 +/− 1.1%
IGFBP-3; SS1 10 mg/kg IV single dose, 144 h post-injection
  serum IGFBP-3 levels (% change from baseline): −51.05 +/− 8.85%
IGFBP-3; SS1 10 mg/kg IV single dose, 192 h post-injection
  serum IGFBP-3 levels (% change from baseline): −45.95 +/− 6.35%
IGFBP-3; SS1 10 mg/kg IV single dose, 312 h post-injection
  serum IGFBP-3 levels (% change from baseline): −38.7 +/− 9.6%
IGFBP-3; SS1 10 mg/kg IV single dose, 336 h post-injection
  serum IGFBP-3 levels (% change from baseline): −42.25 +/− 1.85%
IGFBP-3; SS1 10 mg/kg IV single dose, by 72 hours
  serum IGFBP-3 decrease below baseline: ~38%
IGFBP-3; SS1 10 mg/kg IV single dose, by 144 hours
  serum IGFBP-3 decrease below baseline: ~51%
IGFBP-3; SS1 30 mg/kg IV single dose, 24 h post-injection
  serum IGFBP-3 levels (% change from baseline): −10.6 +/− 4.6%
IGFBP-3; SS1 30 mg/kg IV single dose, 48 h post-injection
  serum IGFBP-3 levels (% change from baseline): −15.75 +/− 9.35%
IGFBP-3; SS1 30 mg/kg IV single dose, 72 h post-injection
  serum IGFBP-3 levels (% change from baseline): −22.95 +/− 16.15%
IGFBP-3; SS1 30 mg/kg IV single dose, 96 h post-injection
  serum IGFBP-3 levels (% change from baseline): −29.4 +/− 13.9%
IGFBP-3; SS1 30 mg/kg IV single dose, 120 h post-injection
  serum IGFBP-3 levels (% change from baseline): −38.15 +/− 9.45%
IGFBP-3; SS1 30 mg/kg IV single dose, 144 h post-injection
  serum IGFBP-3 levels (% change from baseline): −45.7 +/− 11.9%
IGFBP-3; SS1 30 mg/kg IV single dose, 192 h post-injection
  serum IGFBP-3 levels (% change from baseline): −31.05 +/− 16.05%
IGFBP-3; SS1 30 mg/kg IV single dose, 312 h post-injection
  serum IGFBP-3 levels (% change from baseline): −40.65 +/− 5.05%
IGFBP-3; SS1 30 mg/kg IV single dose, 336 h post-injection
  serum IGFBP-3 levels (% change from baseline): −39.45 +/− 0.85%
IGFBP-3; SS1 30 mg/kg IV single dose, by 72 hours
  serum IGFBP-3 decrease below baseline: ~23%
IGFBP-3; SS1 30 mg/kg IV single dose, by 144 hours
  serum IGFBP-3 decrease below baseline: ~46%
IGFBP-3; [1]
  effect on serum IGFBP-3 levels in cynomolgus monkey: dose dependently reduces serum IGFBP-3 levels
